Laboratory results: US20240124586A1

Legend:
human C1Q (human) [1] = target: human C1Q (human) (UniProt P02745); assay: ELISA, antibody coated on the plate, C1q titrated (the concentration is that of C1q)
human C1Q (human) [2] = target: human C1Q (human) (UniProt P02745); assay: ELISA, antibody coated on the plate, C1q titrated (axis: [C1q] nM), anti-C1q-HRP detection
[3] = target: human CD3 on CD3+ Jurkat cells (human) (UniProt P07766); assay: FACS bridging of pre-labelled Jurkat (CD3+) and Raji (CD19+) cells mixed 1:1, negative control
Chain of human CD3 on CD3+ Jurkat cells (human) (P07766 23-207, chain 1 of 3): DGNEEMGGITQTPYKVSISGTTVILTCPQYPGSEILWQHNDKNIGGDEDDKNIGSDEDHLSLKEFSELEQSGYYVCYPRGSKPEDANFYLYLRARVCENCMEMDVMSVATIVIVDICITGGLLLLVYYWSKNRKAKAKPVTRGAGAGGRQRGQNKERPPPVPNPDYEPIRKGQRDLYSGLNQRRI
Chain of human CD3 on CD3+ Jurkat cells (human) (P09693 23-182, chain 2 of 3, further chain): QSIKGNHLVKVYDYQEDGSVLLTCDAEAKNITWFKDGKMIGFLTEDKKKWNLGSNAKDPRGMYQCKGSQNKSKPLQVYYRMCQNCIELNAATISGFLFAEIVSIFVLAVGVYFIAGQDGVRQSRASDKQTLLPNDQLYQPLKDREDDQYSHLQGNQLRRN
Chain of human CD3 on CD3+ Jurkat cells (human) (P04234 22-171, chain 3 of 3, further chain): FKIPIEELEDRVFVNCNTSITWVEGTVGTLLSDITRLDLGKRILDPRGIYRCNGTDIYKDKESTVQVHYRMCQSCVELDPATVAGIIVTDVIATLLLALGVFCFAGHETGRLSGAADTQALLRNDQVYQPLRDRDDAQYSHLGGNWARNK

[4] = target: human CD19 on CD19+ B cell lines (Ramos, Raji) (human) (UniProt P15391); assay: as above
Chain of human CD19 on CD19+ B cell lines (Ramos, Raji) (human) (P15391 20-556): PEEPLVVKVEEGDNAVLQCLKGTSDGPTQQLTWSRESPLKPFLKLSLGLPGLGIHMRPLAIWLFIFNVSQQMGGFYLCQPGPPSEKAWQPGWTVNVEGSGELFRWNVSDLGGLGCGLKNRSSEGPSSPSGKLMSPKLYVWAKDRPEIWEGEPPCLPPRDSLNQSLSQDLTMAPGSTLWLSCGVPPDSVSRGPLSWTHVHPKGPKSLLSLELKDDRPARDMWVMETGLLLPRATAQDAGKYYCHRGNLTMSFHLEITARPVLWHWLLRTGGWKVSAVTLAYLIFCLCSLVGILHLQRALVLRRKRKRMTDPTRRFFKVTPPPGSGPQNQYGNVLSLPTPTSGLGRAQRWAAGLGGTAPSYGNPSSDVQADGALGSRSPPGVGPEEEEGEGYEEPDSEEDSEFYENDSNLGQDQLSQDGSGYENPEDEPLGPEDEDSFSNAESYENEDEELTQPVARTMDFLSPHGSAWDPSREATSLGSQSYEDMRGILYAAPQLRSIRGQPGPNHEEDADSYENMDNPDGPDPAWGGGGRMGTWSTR

Chain of human C1Q (human) (P02745 23-245 limits assumed, chain 1 of 3): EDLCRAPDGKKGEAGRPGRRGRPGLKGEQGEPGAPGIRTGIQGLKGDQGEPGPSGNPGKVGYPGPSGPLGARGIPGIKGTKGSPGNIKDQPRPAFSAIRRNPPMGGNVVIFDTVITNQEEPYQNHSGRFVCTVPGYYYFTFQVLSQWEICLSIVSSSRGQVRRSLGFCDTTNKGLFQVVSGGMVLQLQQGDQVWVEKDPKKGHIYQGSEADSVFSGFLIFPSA
Chain of human C1Q (human) (P02746 28-253 limits assumed, chain 2 of 3, further chain): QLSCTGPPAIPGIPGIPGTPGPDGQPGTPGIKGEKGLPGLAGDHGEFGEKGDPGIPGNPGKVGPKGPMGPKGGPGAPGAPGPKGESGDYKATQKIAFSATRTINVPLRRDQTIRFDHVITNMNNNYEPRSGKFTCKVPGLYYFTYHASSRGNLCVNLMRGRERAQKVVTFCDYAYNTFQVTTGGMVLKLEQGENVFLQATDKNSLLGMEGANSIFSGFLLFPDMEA
Chain of human C1Q (human) (P02747 29-245 limits assumed, chain 3 of 3, further chain): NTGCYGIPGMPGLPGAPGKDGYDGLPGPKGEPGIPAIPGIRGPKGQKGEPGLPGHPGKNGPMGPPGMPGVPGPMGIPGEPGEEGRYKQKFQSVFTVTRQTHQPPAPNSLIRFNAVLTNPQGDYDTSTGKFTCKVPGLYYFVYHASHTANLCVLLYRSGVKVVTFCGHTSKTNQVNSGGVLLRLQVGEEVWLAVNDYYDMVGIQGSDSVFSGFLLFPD

Row | Substance | EC50 (read off the curve) (human C1Q (human) [1]) | EC50 (read off the curve) (human C1Q (human) [2]) | Q2 % (events positive for both the CD3+ and the CD19+ cell label) [3] | Q2 % (events positive for both the CD3+ and the CD19+ cell label) [4]
1 | control human IgG1 antibody | 30 nM | 30 nM | – | –
2 | irrelevant IgG (antibody) | – | – | 4.91% | 4.91%
